Tests used:
[1] = biological target: Recombinant Human β-NGF (human, UniProt P01138 122-241); assay: cell-based or functional assay
[2] = biological target: T1, Recombinant Human TNF-α/TNFSF1A (human, UniProt P01375 77-233); assay: cell-based or functional assay
[3] = biological target: T1, Recombinant Human TNF-α/TNFSF1A; assay: Biacore SPR
Outline: (§1)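 Kinetic constants come from global 1:1 model fitting (Rmax local) at 0.8–100 nM antigen. Flow was 50 μl/min with 5 min association and 10 min dissociation. Capture used goat anti-mouse IgG Fcγ on a CM5 chip in HBS-EP+ at 25 °C.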

[4] = biological target: Recombinant Human IL-13 (human, UniProt P35225 35-146, limits assumed); assay: Biacore SPR
Outline: as §1

T1 sequence (P01375 77-233 limits assumed): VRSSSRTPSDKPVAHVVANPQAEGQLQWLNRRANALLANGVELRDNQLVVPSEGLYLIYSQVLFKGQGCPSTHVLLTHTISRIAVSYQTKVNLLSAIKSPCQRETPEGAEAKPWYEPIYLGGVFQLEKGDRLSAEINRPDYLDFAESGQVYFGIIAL
Sequence of Recombinant Human IL-13 (P35225 35-146 limits assumed): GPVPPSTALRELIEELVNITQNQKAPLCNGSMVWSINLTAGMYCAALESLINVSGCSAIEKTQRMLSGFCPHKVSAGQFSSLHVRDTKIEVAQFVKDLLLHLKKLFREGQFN
Sequence of Recombinant Human β-NGF (P01138 122-241 limits assumed): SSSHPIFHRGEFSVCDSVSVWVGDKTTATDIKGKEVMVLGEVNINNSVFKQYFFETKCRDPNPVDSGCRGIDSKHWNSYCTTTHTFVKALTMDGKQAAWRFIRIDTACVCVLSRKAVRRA

Binder	N-Terminal VD NGF Neutralization Assay IC50 [1] [nM]	C-Terminal VD huTNFα Neutralization Assay IC50 [2] [nM]	N-Terminal VD huTNFα Neutralization Assay IC50 [2] [nM]	Kd [3] [nM]	koff [3] [s⁻¹]	kon [3] [M⁻¹ s⁻¹]	Kd [4] [nM]	koff [4] [s⁻¹]	kon [4] [M⁻¹ s⁻¹]	C-Terminal VD NGF Neutralization Assay IC50 [1] [nM]	huTNFα Neutralization Assay IC50 [2] [nM]
DVD3046 (bispecific antibody, IgG1) VH: EVQLVESGGGLVQPGGSLRLSCAASGFSLTNNNVNWVRQAPGKGLEWVGGVWAGGATDYNSALKSRFTISRDNSKNTAYLQMNSLRAEDTAVYYCARDGGYSSSTLYAMDAWGQGTLVTVSSASTKGPEVQLVQSGAEVKKPGASVKVSCKASGYTFNNYGIIWVRQAPGQGLEWMGWINTYTGKPTYAQKFQGRVTMTTDTSTSTAYMELSSLRSEDTAVYYCARKLFNTVAVTDNAMDYWGQGTTVTVSS VL: DIQMTQSPSSLSASVGDRVTITCRASEDIYNALAWYQQKPGKAPKLLIYNTDTLHTGVPSRFSGSGSGTDYTLTISSLQPEDFATYFCQHYFHYPRTFGQGTKVEIKRTVAAPSVFIFPPDIQMTQSPSSLSASVGDRVTITCRASQDIENYLNWYQQKPGKAPKLLIYYTSRLQSGVPSRFSGSGSGTDFTLTISSLQPEDFATYFCQQGNTQPPTFGQGTKLEIKR	0.145	0.05	–	–	–	–	–	–	–	–	–
DVD3106 (bispecific antibody, IgG1, DVD-Ig; wt hIgG1 + kappa constants) VH: EVQLVQSGAEVKKPGASVKVSCKASGYTFANYGIIWVRQAPGQGLEWMGWINTYTGKPTYAQKFQGRVTMTTDTSTSTAYMELSSLRSEDTAVYYCARKLFTTMDVTDNAMDYWGQGTTVTVSSASTKGPEVQLVQSGAEVKKPGASVKVSCKASGYTFTTYGVSWVRQAPGQGLEWMGEIYPGNYNTYYNEKFRGRVTMTTDTSTSTAYMELRSLRSDDTAVYYCARWRTSYFSDYGYFDYWGQGTTVTVSS VL: DIQMTQSPSSLSASVGDRVTITCRASQDISQYLNWYQQKPGKAPKLLIYYTSRLQSGVPSRFSGSGSGTDFTLTISSLQPEDFATYFCQQGNTWPPTFGQGTKLEIKRTVAAPSVFIFPPDVVMTQSPLSLPVTLGQPASISCRSSQSLVHSHGNTYLHWYQQRPGQSPRLLIYTVSNRFSGVPDRFSGSGSGTDFTLKISRVEAEDVGVYYCSQSTHVPYTFGGGTKVEIKR	–	–	0.018	0.022	8.5e-05	3.9e+06	0.11	6.4e-05	570000	–	–
DVD3041 (bispecific antibody, IgG1) VH: EVQLVQSGAEVKKPGASVKVSCKASGYTFNNYGIIWVRQAPGQGLEWMGWINTYTGKPTYAQKFQGRVTMTTDTSTSTAYMELSSLRSEDTAVYYCARKLFNTVAVTDNAMDYWGQGTTVTVSSASTKGPEVQLVESGGGLVQPGGSLRLSCAASGFSLTNNNVNWVRQAPGKGLEWVGGVWAGGATDYNSALKSRFTISRDNSKNTAYLQMNSLRAEDTAVYYCARDGGYSSSTLYAMDAWGQGTLVTVSS VL: DIQMTQSPSSLSASVGDRVTITCRASQDIENYLNWYQQKPGKAPKLLIYYTSRLQSGVPSRFSGSGSGTDFTLTISSLQPEDFATYFCQQGNTQPPTFGQGTKLEIKRTVAAPSVFIFPPDIQMTQSPSSLSASVGDRVTITCRASEDIYNALAWYQQKPGKAPKLLIYNTDTLHTGVPSRFSGSGSGTDYTLTISSLQPEDFATYFCQHYFHYPRTFGQGTKVEIKR	–	–	0.006	–	–	–	–	–	–	> 10	–
AB441 (antibody, V domains shown, parent antibody) VH: EVQLVQSGAEVKKPGASVKVSCKASGYTFANYGIIWVRQAPGQGLEWMGWINTYTGKPTYAQKFQGRVTMTTDTSTSTAYMELSSLRSEDTAVYYCARKLFTTMDVTDNAMDYWGQGTTVTVSS VL: DIQMTQSPSSLSASVGDRVTITCRASQDISQYLNWYQQKPGKAPKLLIYYTSRLQSGVPSRFSGSGSGTDFTLTISSLQPEDFATYFCQQGNTWPPTFGQGTKLEIKR	–	–	–	0.0024	1.8e-05	7.5e+06	–	–	–	–	0.037
DVD3164 (bispecific antibody, IgG1, DVD-Ig; wt hIgG1 + kappa constants) VH: EVQLVQSGAEVKKPGASVKVSCKASGYTFANYGIIWVRQAPGQGLEWMGWINTYTGKPTYAQKFQGRVTMTTDTSTSTAYMELSSLRSEDTAVYYCARKLFTTMDVTDNAMDYWGQGTTVTVSSASTKGPEVQLVQSGAEVKKPGASVKVSCKASGYTFTSYWMHWVRQAPGQGLEWIGNINPKGGSNIYNEKFQGRVTMTRDTSISTAYMELSRLRSDDTAVYYCARLDYFGDSFDLWGQGTTVTVSS VL: DIQMTQSPSSLSASVGDRVTITCRASQDISQYLNWYQQKPGKAPKLLIYYTSRLQSGVPSRFSGSGSGTDFTLTISSLQPEDFATYFCQQGNTWPPTFGQGTKLEIKRTVAAPDIQMTQSPSSLSASVGDRVTITCRASQGIRNYLNWYQQKPGKAPKLLIYYASNLEVGVPSRFSGSGSGTDYTLTISSLQPEDFATYYCQQDNRFPYTFGGGTKVEIKR	–	–	0.021	0.016	6.5e-05	4e+06	0.87	4.8e-05	55000	–	–
DVD3163 (bispecific antibody, IgG1, DVD-Ig; wt hIgG1 + kappa constants) VH: EVQLVQSGAEVKKPGASVKVSCKASGYTFANYGIIWVRQAPGQGLEWMGWINTYTGKPTYAQKFQGRVTMTTDTSTSTAYMELSSLRSEDTAVYYCARKLFTTMDVTDNAMDYWGQGTTVTVSSGGGGSGGGGSEVQLVQSGAEVKKPGASVKVSCKASGYTFTSYWMHWVRQAPGQGLEWIGNINPKGGSNIYNEKFQGRVTMTRDTSISTAYMELSRLRSDDTAVYYCARLDYFGDSFDLWGQGTTVTVSS VL: DIQMTQSPSSLSASVGDRVTITCRASQDISQYLNWYQQKPGKAPKLLIYYTSRLQSGVPSRFSGSGSGTDFTLTISSLQPEDFATYFCQQGNTWPPTFGQGTKLEIKRGGSGGGGSGDIQMTQSPSSLSASVGDRVTITCRASQGIRNYLNWYQQKPGKAPKLLIYYASNLEVGVPSRFSGSGSGTDYTLTISSLQPEDFATYYCQQDNRFPYTFGGGTKVEIKR	–	–	0.015	0.0039	5e-05	1.3e+07	0.61	8.4e-05	140000	–	–
DVD3107 (bispecific antibody, IgG1, DVD-Ig; wt hIgG1 + kappa constants) VH: EVQLVQSGAEVKKPGASVKVSCKASGYTFANYGIIWVRQAPGQGLEWMGWINTYTGKPTYAQKFQGRVTMTTDTSTSTAYMELSSLRSEDTAVYYCARKLFTTMDVTDNAMDYWGQGTTVTVSSASTKGPSVFPLAPEVQLVQSGAEVKKPGASVKVSCKASGYTFTTYGVSWVRQAPGQGLEWMGEIYPGNYNTYYNEKFRGRVTMTTDTSTSTAYMELRSLRSDDTAVYYCARWRTSYFSDYGYFDYWGQGTTVTVSS VL: DIQMTQSPSSLSASVGDRVTITCRASQDISQYLNWYQQKPGKAPKLLIYYTSRLQSGVPSRFSGSGSGTDFTLTISSLQPEDFATYFCQQGNTWPPTFGQGTKLEIKRTVAAPDVVMTQSPLSLPVTLGQPASISCRSSQSLVHSHGNTYLHWYQQRPGQSPRLLIYTVSNRFSGVPDRFSGSGSGTDFTLKISRVEAEDVGVYYCSQSTHVPYTFGGGTKVEIKR	–	–	0.015	0.053	0.00015	2.8e+06	0.087	7e-05	810000	–	–
DVD3042 (bispecific antibody, IgG1) VH: EVQLVQSGAEVKKPGASVKVSCKASGYTFNNYGIIWVRQAPGQGLEWMGWINTYTGKPTYAQKFQGRVTMTTDTSTSTAYMELSSLRSEDTAVYYCARKLFNTVAVTDNAMDYWGQGTTVTVSSASTKGPSVFPLAPEVQLVESGGGLVQPGGSLRLSCAASGFSLTNNNVNWVRQAPGKGLEWVGGVWAGGATDYNSALKSRFTISRDNSKNTAYLQMNSLRAEDTAVYYCARDGGYSSSTLYAMDAWGQGTLVTVSS VL: DIQMTQSPSSLSASVGDRVTITCRASQDIENYLNWYQQKPGKAPKLLIYYTSRLQSGVPSRFSGSGSGTDFTLTISSLQPEDFATYFCQQGNTQPPTFGQGTKLEIKRTVAAPDIQMTQSPSSLSASVGDRVTITCRASEDIYNALAWYQQKPGKAPKLLIYNTDTLHTGVPSRFSGSGSGTDYTLTISSLQPEDFATYFCQHYFHYPRTFGQGTKVEIKR	–	–	0.006	–	–	–	–	–	–	> 10	–

Source: patent US20140271457A1 (AbbVie / Abbott, published 2014)
